Measurements published in patent US20100144645A1, “COMPOSITIONS AND METHODS FOR ENHANCING […] POTENCY OF […]-COMPOUNDS, A[…] ADVERSE SIDE EFFECTS, AND […] ABUSE” (SHIRE LLC, priority 2006, published 2010).
Residues, ends and D or L forms follow the SMILES beside them. *: point of attachment. X1 = COc1ccc2c3c1OC1C(O*)=CCC4[C@@H](C2)N(C)CC[C@]314

Assays:
[1] = Oral bioavailability of oxycodone conjugates (plasma oxycodone plus oxymorphone); settings: rats; for AUC % (Oral Bioavailability): Table G
[2] = Intranasal bioavailability of hydrocodone conjugates; settings: rats, relative to hydrocodone
[3] = stability 90 C., 20 min (V, BP, TW, BS) of hydrocodone conjugates; settings: for stability 90 C., 20 min BP: BP (abbreviation not defined); for stability 90 C., 20 min BS: BS (abbreviation not defined); for stability 90 C., 20 min TW: TW (abbreviation not defined); for stability 90 C., 20 min V: V (abbreviation not defined)
[4] = Oral bioavailability of hydrocodone conjugates (plasma hydrocodone plus hydromorphone); settings: for bioavailabiltty (% HC) oral AUC / bioavailabiltty (% HC) oral Cmax: rats, relative to hydrocodone; for Oral:IN Index AUC: ratio of oral to IN AUC (% HC); for Oral:IN Index Cmax: ratio of oral to IN Cmax (% HC)
[5] = n = 4 animals, analysis by LC-MS, OXY = 100

SMILES | Oral (% AUC) [1, 5] | bioavailabiltty (% HC) IN AUC [2] | bioavailabiltty (% HC) IN Cmax [2] | stability 90 C., 20 min BP [3] | stability 90 C., 20 min BS [3] | stability 90 C., 20 min TW [3] | stability 90 C., 20 min V [3] | bioavailabiltty (% HC) oral AUC [4] | bioavailabiltty (% HC) oral Cmax [4] | other results
CC[C@H](C)[C@H](NC(=O)[C@H](CCC(=O)O)NC(=O)[C@@H](N)CCC(=O)O)C(=O)OC1=CCC2(O)[C@H]3Cc4ccc(OC)c5c4[C@@]2(CCN3C)C1O5 (stereo partly drawn) [Glu-Glu-Ile-OC] | 179 % AUC |  |  |  |  |  |  |  |  | 
COc1ccc2c3c1OC1C(OC(=O)[C@H](CC(C)C)NC(=O)[C@H](CCC(=O)O)NC(=O)[C@@H](N)CCC(=O)O)=CCC4(O)[C@@H](C2)N(C)CC[C@]314 (stereo partly drawn) [Glu-Glu-Leu-OC] | 80 % AUC |  |  |  |  |  |  |  |  | 
COc1ccc2c3c1OC1C(OC(=O)[C@H](Cc4ccccc4)NC(=O)[C@H](CCC(=O)O)NC(=O)[C@@H](N)CCC(=O)O)=CCC4(O)[C@@H](C2)N(C)CC[C@]314 (stereo partly drawn) [Glu-Glu-Phe-OC] | 49 % AUC |  |  |  |  |  |  |  |  | 
COc1ccc2c3c1OC1C(OC(=O)[C@@H]4CCCN4C(=O)[C@H](CCC(=O)O)NC(=O)[C@@H](N)CCC(=O)O)=CCC4(O)[C@@H](C2)N(C)CC[C@]314 (stereo partly drawn) [Glu-Glu-Pro-OC] | 71 % AUC |  |  |  |  |  |  |  |  | 
COc1ccc2c3c1OC1C(OC(=O)[C@@H](NC(=O)[C@H](CCC(=O)O)NC(=O)[C@@H](N)CCC(=O)O)C(C)C)=CCC4(O)[C@@H](C2)N(C)CC[C@]314 (stereo partly drawn) [Glu-Glu-Val-OC] | 55 % AUC |  |  |  |  |  |  |  |  | 
CC[C@H](C)[C@H](NC(=O)CNC(=O)CN)C(=O)OC1=CCC2(O)[C@H]3Cc4ccc(OC)c5c4[C@@]2(CCN3C)C1O5 (stereo partly drawn) [Gly-Gly-Ile-OC] |  |  |  |  |  |  |  |  |  | Oral (% AUC) ([1]; n = 4, LC-MS, Dosed at 40% higher levels than calculated): 224 % AUC
COc1ccc2c3c1OC1C(OC(=O)[C@H](Cc4ccccc4)NC(=O)CNC(=O)CN)=CCC4(O)[C@@H](C2)N(C)CC[C@]314 (stereo partly drawn) [Gly-Gly-Phe-OC] | 163 % AUC |  |  |  |  |  |  |  |  | 
COc1ccc2c3c1OC1C(OC(=O)[C@@H](NC(=O)CNC(=O)CN)C(C)C)=CCC4(O)[C@@H](C2)N(C)CC[C@]314 (stereo partly drawn) [Gly-Gly-Val-OC] | 123 % AUC |  |  |  |  |  |  |  |  | 
CC[C@H](C)[C@H](N)C(=O)N[C@H](C(=O)N[C@H](C(=O)OC1=CCC2(O)[C@H]3Cc4ccc(OC)c5c4[C@@]2(CCN3C)C1O5)[C@@H](C)CC)[C@@H](C)CC (stereo partly drawn) [Ile-Ile-Ile-OC] | 83 % AUC |  |  |  |  |  |  |  |  | 
COc1ccc2c3c1OC1C(OC(=O)[C@@H](NC(=O)[C@H](CC(C)C)NC(=O)[C@@H](N)CC(C)C)C(C)C)=CCC4(O)[C@@H](C2)N(C)CC[C@]314 (stereo partly drawn) [Leu-Leu-Val-OC] | 81 % AUC |  |  |  |  |  |  |  |  | 
COc1ccc2c3c1OC1C(OC(=O)[C@H](Cc4ccccc4)NC(=O)[C@@H]4CCCN4C(=O)[C@@H](N)CC(C)C)=CCC4[C@@H](C2)N(C)CC[C@]314 (stereo partly drawn) [Leu-Pro-Phe-HC] |  | 83 % HC | 101 % HC | 100 | 100 | 100 | 2 | 106 % HC | 125 % HC | Oral:IN Index AUC [4]: 1.28; Oral:IN Index Cmax [4]: 1.24
CC[C@H](C)[C@H](NC(=O)[C@H](CC(=O)O)NC(=O)[C@H](CC(=O)O)NC(=O)[C@H](CCCCN)NC(=O)[C@@H](N)CCCCN)C(=O)OC1=CCC2[C@H]3Cc4ccc(OC)c5c4[C@@]2(CCN3C)C1O5 (stereo partly shown) [Lys2-Asp2-Ile-HC] (H-KKDDI-X1) |  | 39 % HC | 56 % HC | 64 | 100 | 0 | 0 | 90 % HC | 121 % HC | Oral:IN Index AUC [4]: 2.31; Oral:IN Index Cmax [4]: 2.16
CC[C@H](C)[C@H](NC(=O)[C@@H]1CCCN1C(=O)[C@@H]1CCCN1C(=O)[C@H](CCCCN)NC(=O)[C@@H](N)CCCCN)C(=O)OC1=CCC2[C@H]3Cc4ccc(OC)c5c4[C@@]2(CCN3C)C1O5 (stereo partly shown) [Lys2-Pro2-Ile-HC] (H-KKPPI-X1) |  | 68 % HC | 94 % HC | 72 | 100 | 66 | 0 | 80 % HC | 76 % HC | Oral:IN Index AUC [4]: 1.18; Oral:IN Index Cmax [4]: 0.81
CC[C@H](C)[C@H](NC(=O)[C@H](CCCCN)NC(=O)[C@@H](N)CCCCN)C(=O)OC1=CCC2[C@H]3Cc4ccc(OC)c5c4[C@@]2(CCN3C)C1O5 (stereo partly drawn) [Lys-Lys-Ile-HC] |  | 68 % HC | 94 % HC | 100 | 97 | 96 | 0 | 80 % HC | 76 % HC | Oral:IN Index AUC [4]: 1.18; Oral:IN Index Cmax [4]: 0.81
CC[C@H](C)[C@H](NC(=O)[C@H](CCCCN)NC(=O)[C@@H](N)CCCCN)C(=O)OC1=CCC2(O)[C@H]3Cc4ccc(OC)c5c4[C@@]2(CCN3C)C1O5 (stereo partly drawn) [Lys-Lys-Ile-OC] | 74 % AUC |  |  |  |  |  |  |  |  | 
COc1ccc2c3c1OC1C(OC(=O)[C@H](CC(C)C)NC(=O)[C@H](CCCCN)NC(=O)[C@@H](N)CCCCN)=CCC4(O)[C@@H](C2)N(C)CC[C@]314 (stereo partly drawn) [Lys-Lys-Leu-OC] | 46 % AUC |  |  |  |  |  |  |  |  | 
COc1ccc2c3c1OC1C(OC(=O)[C@H](Cc4ccccc4)NC(=O)[C@H](CCCCN)NC(=O)[C@@H](N)CCCCN)=CCC4(O)[C@@H](C2)N(C)CC[C@]314 (stereo partly drawn) [Lys-Lys-Phe-OC] | 37 % AUC |  |  |  |  |  |  |  |  | 
COc1ccc2c3c1OC1C(OC(=O)[C@@H](NC(=O)[C@H](CCCCN)NC(=O)[C@@H](N)CCCCN)C(C)C)=CCC4(O)[C@@H](C2)N(C)CC[C@]314 (stereo partly drawn) [Lys-Lys-Val-OC] | 108 % AUC |  |  |  |  |  |  |  |  | 
CC[C@H](C)[C@H](NC(=O)[C@H](Cc1ccccc1)NC(=O)[C@@H](N)Cc1ccccc1)C(=O)OC1=CCC2(O)[C@H]3Cc4ccc(OC)c5c4[C@@]2(CCN3C)C1O5 (stereo partly drawn) [Phe-Phe-Ile-OC] | 59 % AUC |  |  |  |  |  |  |  |  | 
COc1ccc2c3c1OC1C(OC(=O)[C@@H](NC(=O)[C@H](Cc4ccccc4)NC(=O)[C@@H](N)Cc4ccccc4)C(C)C)=CCC4(O)[C@@H](C2)N(C)CC[C@]314 (stereo partly drawn) [Phe-Phe-Val-OC] | 32 % AUC |  |  |  |  |  |  |  |  | 
CC[C@H](C)[C@H](NC(=O)[C@@H]1CCCN1)C(=O)N[C@H](C(=O)OC1=CCC2[C@H]3Cc4ccc(OC)c5c4[C@@]2(CCN3C)C1O5)[C@@H](C)CC (stereo partly drawn) [Pro-Ile-Ile-HC] |  | 86 % HC | 102 % HC | 47 | 100 | 83 | 0 | 104 % HC | 99 % HC | Oral:IN Index AUC [4]: 1.21; Oral:IN Index Cmax [4]: 0.97
CC[C@H](C)[C@H](NC(=O)[C@H](CC(C)C)NC(=O)[C@@H]1CCCN1)C(=O)OC1=CCC2[C@H]3Cc4ccc(OC)c5c4[C@@]2(CCN3C)C1O5 (stereo partly drawn) [Pro-Leu-Ile-HC] |  | 87 % HC | 101 % HC | 100 | 100 | 100 | 0 | 141 % HC | 172 % HC | 
CC[C@H](C)[C@H](NC(=O)[C@@H]1CCCN1C(=O)[C@@H]1CCCN1)C(=O)OC1=CCC2(O)[C@H]3Cc4ccc(OC)c5c4[C@@]2(CCN3C)C1O5 (stereo partly drawn) [Pro-Pro-Ile-OC] | 85 % AUC |  |  |  |  |  |  |  |  | AUC % (Oral Bioavailability) [1]: 85%
COc1ccc2c3c1OC1C(OC(=O)[C@H](CC(C)C)NC(=O)[C@@H]4CCCN4C(=O)[C@@H]4CCCN4)=CCC4[C@@H](C2)N(C)CC[C@]314 (stereo partly drawn) [Pro-Pro-Leu-HC] |  | 46 % HC | 48 % HC | 100 | 100 | 100 | 2 | 94 % HC | 108 % HC | Oral:IN Index AUC [4]: 2.04; Oral:IN Index Cmax [4]: 2.25
COc1ccc2c3c1OC1C(OC(=O)[C@@H](NC(=O)[C@@H]4CCCN4C(=O)[C@@H]4CCCN4)C(C)C)=CCC4(O)[C@@H](C2)N(C)CC[C@]314 (stereo partly drawn) [Pro-Pro-Val-OC] | 152 % AUC |  |  |  |  |  |  |  |  | AUC % (Oral Bioavailability) [1]: 152%
CC[C@H](C)[C@H](NC(=O)[C@H](Cc1ccccc1)NC(=O)[C@H](Cc1ccccc1)NC(=O)[C@H](Cc1ccc(O)cc1)NC(=O)[C@@H](N)Cc1ccc(O)cc1)C(=O)OC1=CCC2[C@H]3Cc4ccc(OC)c5c4[C@@]2(CCN3C)C1O5 (stereo partly shown) [Tyr2-Phe2-Ile-HC] (H-YYFFI-X1) |  | 26 % HC | 34 % HC | 5 | 50 | 5 | 0 | 113 % HC | 63 % HC | Oral:IN Index AUC [4]: 4.35; Oral:IN Index Cmax [4]: 1.85
CC[C@H](C)[C@H](NC(=O)[C@H](Cc1ccc(O)cc1)NC(=O)[C@@H](N)Cc1ccc(O)cc1)C(=O)OC1=CCC2[C@H]3Cc4ccc(OC)c5c4[C@@]2(CCN3C)C1O5 (stereo partly drawn) [Tyr-Tyr-Ile-HC] |  | 20 % HC | 34 % HC | 66 | 100 | 23 | 0 | 145 % HC | 234 % HC | Oral:IN Index AUC [4]: 7.25; Oral:IN Index Cmax [4]: 6.88
CC[C@H](C)[C@H](NC(=O)[C@H](Cc1ccc(O)cc1)NC(=O)[C@@H](N)Cc1ccc(O)cc1)C(=O)OC1=CCC2(O)[C@H]3Cc4ccc(OC)c5c4[C@@]2(CCN3C)C1O5 (stereo partly drawn) [Tyr-Tyr-Ile-OC] | 85 % AUC |  |  |  |  |  |  |  |  | 
